From patent US20170129954A1 (PROTHENA BIOSCIENCES, published 2017) come the findings set out here.

The target of experiment [1] is T1, human MCAM domain 1 (amino acids 19-129) hFc (human, UniProt P43121 19-129).
T1 construct: One of the various MCAMhFc domains captured on anti-human IgG Fc biosensors; also called MCAMhFc domain; not shown: human IgG Fc (hFc)
T1 sequence: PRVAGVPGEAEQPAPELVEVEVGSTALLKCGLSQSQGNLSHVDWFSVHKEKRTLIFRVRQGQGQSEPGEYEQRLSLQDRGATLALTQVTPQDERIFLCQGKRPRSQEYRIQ
Briefly: ForteBio BLI, MCAMhFc domains on anti-human IgG Fc biosensors. An excerpt:
(§1) The following protocol was used: ForteBio anti-human IgG Fc biosensors were used to immobilize various MCAMhFc domains including full length MCAMhFc protein on to biosensor surface. […] After loading these samples into a black 96 well plate, the Octet Red was programmed as follows: 60 seconds for baseline #1; 180 seconds for loading various domains; 60 seconds for baseline #2; 180 seconds for association of antibody to domain; and 240 seconds for dissociation of antibody from domain.
(§2) 1. MCAMhFc final concentration @ 5 ug/ml [0329] […] 3. ForteBio anti-human IgG Fc Capture (AHC) biosensors for kinetics experiments, cat #18-5060 [0331] 4. Block 96 well plate from Greiner Bio-one, cat #655209 [0332] 5. ForteBio Octet Red machine [0333] 6. Fresh tissue culture medium, DMEM with 20% FCS, was used as buffer for dilution The results from these analyses are as follows.
In general terms: In BLI a coated tip is dipped into the sample, and binding shifts an interference pattern.

Experiment [2] addresses T2, human MCAM, full length, expressed on transfected cells (human, UniProt P43121 24-646).
T2 construct: also called CD146; MUC18
T2 chain: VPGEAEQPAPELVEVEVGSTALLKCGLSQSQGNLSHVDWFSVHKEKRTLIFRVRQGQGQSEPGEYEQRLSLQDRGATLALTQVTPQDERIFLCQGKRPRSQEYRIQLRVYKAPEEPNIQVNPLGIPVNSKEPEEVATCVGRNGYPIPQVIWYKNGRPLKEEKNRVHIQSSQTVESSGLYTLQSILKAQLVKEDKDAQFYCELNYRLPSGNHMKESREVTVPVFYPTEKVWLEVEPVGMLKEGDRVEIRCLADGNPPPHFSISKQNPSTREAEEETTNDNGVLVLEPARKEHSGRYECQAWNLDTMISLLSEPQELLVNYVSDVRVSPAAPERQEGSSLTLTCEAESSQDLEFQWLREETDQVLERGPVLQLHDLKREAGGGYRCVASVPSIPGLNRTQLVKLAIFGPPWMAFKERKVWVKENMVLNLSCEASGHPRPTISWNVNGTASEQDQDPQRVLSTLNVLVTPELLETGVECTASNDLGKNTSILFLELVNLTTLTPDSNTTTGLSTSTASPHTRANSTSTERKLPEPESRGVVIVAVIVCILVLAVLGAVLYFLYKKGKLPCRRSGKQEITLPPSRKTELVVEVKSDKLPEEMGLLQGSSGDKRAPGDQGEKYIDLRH
Briefly: flow cytometry, blocking of recombinant human laminin 411 (20 ug/ml) binding to CHO cells expressing human MCAM. The method, then:
The 87 independent mouse fusion clones and 26 independent rat fusion clones described in Example 1 above as being capable of (i) binding to human MCAM, and (ii) blocking the interaction between human MCAM and the α-4 chain of laminin were further characterized as follows. First, IC50 quantitation for the ability of the monoclonal antibody to block the binding of human MCAM to the α-4 chain of laminin was determined as follows. CHO cells expressing human MCAM were incubated with an anti-human MCAM antibody (at various concentrations) for 30 minutes at 4 degrees Celsius. […] Unbound laminin was then washed away, and the laminin bound to the surface of the cells was detected with fluorescently labeled anti-laminin antibodies. After washing, the amount of laminin bound to the surface was detected by flow cytometry, and IC50s were calculated based on the mean fluorescent intensity.
Amino acid and nucleic acid sequences of the heavy and light chains of these antibodies, and their hypervariable regions, are provided in SEQ ID NOs:29-92. […] As such, each of these specific monoclonal antibodies was very capable of binding to human MCAM and inhibiting the interaction of cell-expressed human MCAM with its α-4 laminin binding ligand.
In general terms: Flow cytometry measures light scatter and fluorescence of single cells or particles in a stream.

The target of experiment [3] is T3, combination of human MCAM domains 1 and 2 (amino acids 19-242) hFc (human, UniProt P43121 19-242).
T3 construct: One of the various MCAMhFc domains captured on anti-human IgG Fc biosensors; also called combination of domains 1 and 2; MCAMhFc domain; not shown: human IgG Fc (hFc)
T3 sequence: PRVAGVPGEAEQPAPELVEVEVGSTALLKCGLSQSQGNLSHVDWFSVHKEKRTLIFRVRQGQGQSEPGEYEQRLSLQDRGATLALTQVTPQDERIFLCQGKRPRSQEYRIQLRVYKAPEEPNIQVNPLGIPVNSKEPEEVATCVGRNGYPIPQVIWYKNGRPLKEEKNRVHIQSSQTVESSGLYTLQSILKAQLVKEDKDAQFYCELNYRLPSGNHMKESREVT
The experiment is described as follows: ForteBio BLI, MCAMhFc domains on anti-human IgG Fc biosensors.
Text: as §1, §2

The target of experiment [4] is T4, human MCAM domain 2 (amino acids 139-242) hFc (human, UniProt P43121 139-242).
T4 construct: One of the various MCAMhFc domains captured on anti-human IgG Fc biosensors; also called MCAMhFc domain; not shown: human IgG Fc (hFc)
T4 sequence: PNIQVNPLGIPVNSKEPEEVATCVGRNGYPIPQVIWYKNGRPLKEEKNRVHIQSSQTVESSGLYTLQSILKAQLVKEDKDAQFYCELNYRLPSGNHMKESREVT
The description is as above.
Text: as §1, §2

The target in experiment [5] is T5, human MCAM (antigen of the BLI kinetics in Example 7) (human, UniProt P43121 24-559, limits assumed).
T5 chain: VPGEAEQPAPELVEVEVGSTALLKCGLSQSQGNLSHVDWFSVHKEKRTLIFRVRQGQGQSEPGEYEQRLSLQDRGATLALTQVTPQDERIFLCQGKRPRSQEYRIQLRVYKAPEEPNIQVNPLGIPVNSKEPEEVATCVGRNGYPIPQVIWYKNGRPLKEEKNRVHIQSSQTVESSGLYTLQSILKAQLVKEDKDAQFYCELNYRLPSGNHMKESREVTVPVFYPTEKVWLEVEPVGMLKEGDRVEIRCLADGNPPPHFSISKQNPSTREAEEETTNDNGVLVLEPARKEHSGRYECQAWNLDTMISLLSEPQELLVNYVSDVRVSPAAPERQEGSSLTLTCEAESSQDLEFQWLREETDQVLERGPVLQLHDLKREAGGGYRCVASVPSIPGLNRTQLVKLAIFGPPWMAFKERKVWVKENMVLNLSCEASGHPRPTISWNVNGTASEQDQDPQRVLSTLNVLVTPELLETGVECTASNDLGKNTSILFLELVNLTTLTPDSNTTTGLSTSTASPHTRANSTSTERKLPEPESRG
The experiment is described as follows: BLI, ForteBio Octet QK, apparent kd. An excerpt:
(§3) Apparent ka, apparent kd and apparent KD are binding kinetic parameters obtained using ForteBio assay formats.

Experiment [6] deals with T5, human MCAM (antigen of the BLI kinetics …). The experiment is described as follows: BLI, ForteBio Octet QK, apparent ka.
Text: as §3

The target is the same in experiment [7]. The experiment is described as follows: BLI, ForteBio Octet QK, apparent KD.
Text: as §3

B1: rat anti-human MCAM monoclonal antibody clone 2120.4.19 (antibody, V domains shown)
VH: QVQLKESGPGLVQPSQTLSLTCTVSGFSLTSNGVSWVRQPPGKGLEWIAAISSGGTTYYNSAFKSRLSISRNTSKSQVLLKMNSLQTEDTAMYFCARRYGYGWYFDFWGPGTMVTVSS
VL: DIRMTQSPSLLSASVGDRVTLNCKASQNIYNSLAWYQQKLGEGPKVLIFNANSLQTGIPSRFSGSGSGTDFTLTISSLQPEDFATYFCQQFYSGYTFGAGTKLELK
notes: Rat hybridoma monoclonal antibody
The IC50 is the concentration that inhibits the measured activity by half. For the molecule B1, the binding result in experiment [1] is “no binding (tested: 5 ug/ml)”. Also, the IC50 in experiment [2] is 0.888 µg/mL.

B2: mouse anti-human MCAM monoclonal antibody clone 1174.1.3 (antibody, V domains shown)
VH: QIQLVQSGPELKKPGETVKISCKASGYTFTNYGMNWVKQAPGKGLKWMGWINTYTGEPTYADDFKGRFALSLETSASTAYLQINNLKNEDMATYFCARYRYNKYERAMDYWGQGTSVTVSS
VL: DIVLTQSPASLAVSLGQRATISCRASKSVSTSGYSYMYWYQQKPGQPPKLLIYLASNLESGVPARFSGSGSGTDFTLNIHPVEEEDAATYYCQHSRELPFTFGSGTKLEIK
notes: Mouse hybridoma monoclonal antibody
Regarding B2, the binding result in experiment [3], in experiment [1] and in experiment [4] was “no binding (tested: 5 ug/ml)” each time. The IC50 in experiment [2] is 0.469 µg/mL.

B3: rat anti-human MCAM monoclonal antibody clone 2107.4.10 (antibody, V domains shown)
VH: QVQLKESGPGLVQSSQTLSLTCTVSGFSLTSNGVSWVRQPPGKGLEWIAAISSGGSTYYNSAFKSRLSISRNTSKSQVLLKMNSLQTEDTGMYFCARHRPFYFDYWGQGVMVTVSS
VL: DIQVTQSPSLLSASVGDRVTLNCKGSQNIYKSLAWFRLKRGEAPKLLIYDANSLQTGIPSRFSGSGSGTDFTLTITSLQPEDVATYFCQQYYSGYTFGAGTKLELK
notes: as for B1
As for B3, the binding result in experiment [1] was “no binding (tested: 5 ug/ml)”. The IC50 in experiment [2] came to 0.29 µg/mL.

B4: mouse anti-human MCAM monoclonal antibody clone 1415.1.1 (antibody, V domains shown)
VH: QVQLQQPGAELVQPGAPVKLSCKASGYIFTSYWMNWVKQRPGRGLEWIGRIDPSDSKIHYNQKFKDKATLTVDRSSSTAYIQLGSLTSEDSAVYYCAKEGGLRRGDYAMDYWGQGTSVTVSS
VL: DIVMTQSPATLSVTPGDRVSLSCRASQSISDYLHWYQQKSHESPRLLIKYASQSISGIPSRFSGSGSGSDFTLSINSVEPEDVGVYYCQNGHNFPRTFGGGTKLEIK
notes: as for B2
As for B4, the binding result in experiment [3], in experiment [1] and in experiment [4] was “no binding (tested: 5 ug/ml)” each time. The concentration for half-maximal inhibition (IC50) in experiment [2] turned out to be 0.307 µg/mL.

B5: Chimeric 1749 (antibody, V domains shown)
VH: DVKLVESGGDLVKPGGSLKLSCAASGFTFSSYIMSWVRQTPEKRLEWVATISSGGSSTYYPDSVKGRFTISRDNAKNTLYLQMSSLKSEDTAMYYCTRDDDYDVKVFAYWGQGTLVTVSA
VL: DIVMSQSPSSLAVSAGEKVTMNCKSSRSLLNSRIRKNYLAWYQQKPGQSPKLLIYWASTRESGVPDRFTGSGSGTDFTLTISSVQAEDLAVYYCKQSYNLLTFGAGTKLELK
notes: also called ch1749
By koff is commonly meant the rate constant with which the complex falls apart. As a reminder, the kon is a measure of how fast the partners come together. Consider B5, for which, in experiment [5], the koff amounted to 0.000439 s⁻¹. In addition, the on-rate (kon) in experiment [6] worked out at 1.94e+06 M⁻¹ s⁻¹. Also, the Kd in experiment [7] turned out to be 226 pM.

B6: mouse anti-human MCAM monoclonal antibody clone 1414.1.2 (antibody, V domains shown)
VH: EIQLQQTGPELVKPGASVKISCKASGYSFTDYIMLWVKQSHGKSLEWIGNINPYSGSSGYNLKFKGKATLTVDKSSSTAYMQLNSLTSEDSAVYYCARGKDFAMDYWGQGTSVTVSS
VL: DIVMSQSPSSLAVSAGEKVTMSCKSSQSLLNSSTRKNFLAWYQQKPGQSPKLLIYWASTRESGVPDRFTGSGSGTDFTLTISSVQAEDLAVYYCKQSYNRYTFGGGTKLEIK
notes: as for B2
Take B6: the binding result in experiment [3], in experiment [1] and in experiment [4] was “no binding (tested: 5 ug/ml)” each time. In addition, the 50% inhibitory concentration (IC50) in experiment [2] worked out at 0.431 µg/mL.

B7: Human 1749VH3VL3 (Hu1749VHv3 and Hu1749VLv3) (antibody, V domains shown)
VH: EVKLVESGGGLVQPGGSLRLSCAASGFTFSSYIMSWVRQTPEKRLEWVATISSGGSSTYYPDSVKGRFTISRDNAKNTLYLQMSSLKSEDTAMYYCTRDDDYDVKVFAYWGQGTLVTVSS
VL: DIVMTQSPSSLAVSLGERVTINCKSSRSLLNSRIRKNYLAWYQQKPGQSPKLLIYWASTRESGVPDRFSGSGSGTDFTLTISSLQAEDVAVYYCKQSYNLLTFGQGTKVEIKR
notes: also called hu1749VH3VL3; hu1749H3L3
As for B7, the koff in experiment [5] came out at 0.00044 s⁻¹. Besides, the kon in experiment [6] was 1.99e+06 M⁻¹ s⁻¹. Besides, the Kd in experiment [7] amounted to 221 pM.
